Patent US9730980B2

Target: NR1D1 (pCDNA-Nr1d1 expression vector)

luciferase activity driven by the human G6pase promoter: 14.5%
Substance: r-h-apoA-IV
